Results: patent US20140296146A1, “Thermostable Inhibitors of Activation of the Blood Clotting System Through Contact with Foreign Surfaces” (Synapse B.V., priority 2011, published 2014)
Numbering of substitutions follows the chain as printed. Several values for one entry are separate records, joined by “and”; a condition that tells them apart may be missing. Identical values can stand only once. Bridges are numbered along the chain shown (N, C = ends). Where no end group is shown, it is not given here.

Columns and labels:
[1] = target: T1, h-FXIIa (human, UniProt P00748 20-615); experiment: S2302 hydrolysis by h-FXIIa, fit of residual activity
T1 construct: also called factor XIIa
T1 sequence (looked up): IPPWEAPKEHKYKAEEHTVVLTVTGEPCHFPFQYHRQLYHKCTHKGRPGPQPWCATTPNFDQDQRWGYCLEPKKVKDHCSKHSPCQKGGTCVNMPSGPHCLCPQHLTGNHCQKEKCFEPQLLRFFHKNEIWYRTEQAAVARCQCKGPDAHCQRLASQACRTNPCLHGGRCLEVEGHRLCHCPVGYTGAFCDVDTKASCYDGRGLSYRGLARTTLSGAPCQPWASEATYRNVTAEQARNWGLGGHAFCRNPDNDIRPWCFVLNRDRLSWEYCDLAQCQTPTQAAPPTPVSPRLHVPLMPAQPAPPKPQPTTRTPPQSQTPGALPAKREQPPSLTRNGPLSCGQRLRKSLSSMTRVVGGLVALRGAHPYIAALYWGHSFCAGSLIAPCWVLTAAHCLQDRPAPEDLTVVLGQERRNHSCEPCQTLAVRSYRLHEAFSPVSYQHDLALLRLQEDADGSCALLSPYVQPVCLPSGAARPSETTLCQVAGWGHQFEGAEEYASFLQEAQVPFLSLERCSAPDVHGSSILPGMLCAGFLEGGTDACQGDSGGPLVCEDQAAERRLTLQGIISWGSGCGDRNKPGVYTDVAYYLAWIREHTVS
Procedure: (§1) Stock FXIIa was diluted 700× in BSA5. The inhibitor was diluted in BSA5 as indicated. Wells contained 70 μl diluted FXIIa (5 nM final), 70 μl inhibitor and 20 μl S2302 (475 or 462.5 μM final). The reaction was started after 5 min heating on the heating plate with S2302. Filters 405 nm and 490 nm reference. Found mΔA/min was multiplied by 2.14 to get the figure for a 1 cm path.
(§2) in which E=[FXIIa], Ki is the dissociation constant, I=[Inhibitor], kcat and Km are Michaelis constants and S=[S2302].

[2] = target: T1, h-FXIIa; experiment: S2302 hydrolysis by h-FXIIa (5.01 nM); inhibitor 30 min 95° C.
Procedure: as §1, with “ΔmA/min” for “mΔA/min”

[3] = target: T1, h-FXIIa; experiment: S2302 hydrolysis by h-FXIIa (5.01 nM); inhibitor kept at -80° C.
Procedure: as §1, with “ΔmA/min” for “mΔA/min”

[4] = target: T1, h-FXIIa; experiment: S2302 hydrolysis by h-FXIIa (5.01 nM); inhibitor at RT during 72 hrs
Procedure: as §1, with “ΔmA/min” for “mΔA/min”

[5] = target: T1, h-FXIIa; experiment: S2302 hydrolysis by h-FXIIa (5.01 nM); inhibitor kept at -80° C. (reference)
Procedure: as §1, with “ΔmA/min” for “mΔA/min”

[6] = target: T1, h-FXIIa; experiment: S2302 hydrolysis by h-FXIIa (5.01 nM); inhibitor 30 min 95° C., against -80° C.
Procedure: as §1, with “ΔmA/min” for “mΔA/min”

[7] = target: T1, h-FXIIa; experiment: S2302 hydrolysis by h-FXIIa (5.01 nM); inhibitor at RT during 72 hrs, against -80° C.
Procedure: as §1, with “ΔmA/min” for “mΔA/min”

[8] = target: T1, h-FXIIa; experiment: S2302 hydrolysis by h-FXIIa (5 nM), fit of residual activity; dissociation constant of the complex
Procedure: as §1, §2

[9] = TICA1 Ala-scan with intact disulfides, activity vs TICA1; conditions: single amino acid substituted by alanine
Source text: Every single amino acid was substituted by alanine except for cysteine. […] See also FIG. 6.

[10] = target: h-FXIIa (human) (UniProt P00748); experiment: activity of TICA1 disulfide variants against TICA1 with 3 disulfides (FIG. 5); assay not named
[11] = target: T2, h-FXIIa (human), P00748; experiment: S2302 hydrolysis by h-FXIIa (5 nM), fit of residual activity; dissociation constant of the complex
T2 chain: T1 sequence (looked up)

[12] = target: T1, h-FXIIa; experiment: S2302 hydrolysis by F.XIIa; before heating
[13] = target: T1, h-FXIIa; experiment: activity of TICA1 disulfide variants against TICA1 with 3 disulfides (FIG. 5); assay not named
[14] = target: T2, h-FXIIa (human), …; experiment: cell-based or functional assay
[15] = target: T2, h-FXIIa (human), …; experiment: S2302 hydrolysis by h-FXIIa, fit of residual activity
[16] = target: T2, h-FXIIa (human), …; experiment: S2302 hydrolysis by h-FXIIa (5.01 nM); inhibitor 30 min 95° C.
[17] = target: T2, h-FXIIa (human), …; experiment: S2302 hydrolysis by h-FXIIa (5.01 nM); inhibitor kept at -80° C.
[18] = target: T2, h-FXIIa (human), …; experiment: S2302 hydrolysis by h-FXIIa (5.01 nM); inhibitor at RT during 72 hrs
[19] = target: T2, h-FXIIa (human), …; experiment: activity of TICA1 disulfide variants (FIG. 5), reference; assay not named
[20] = target: T2, h-FXIIa (human), …; experiment: S2302 hydrolysis by h-FXIIa (5.01 nM); inhibitor kept at -80° C. (reference)
[21] = target: T2, h-FXIIa (human), …; experiment: S2302 hydrolysis by h-FXIIa (5.01 nM); inhibitor 30 min 95° C., against -80° C.
[22] = target: T2, h-FXIIa (human), …; experiment: FXIIa activity, total FXIIa 9.33 nM, 306 nM TICA1 added after 60 minutes at 95° C.
[23] = target: T2, h-FXIIa (human), …; experiment: S2302 hydrolysis by h-FXIIa (5.01 nM); inhibitor at RT during 72 hrs, against -80° C.
[24] = target: T2, h-FXIIa (human), …; experiment: residual inhibitor activity after 60 minutes at 95° C., calculated from free FXIIa (total 9.33 nM)

squash trypsin inhibitor (STI), the serpin from Cucurbita Maxima seeds
Ki [1]: 251 nM | Ki [2]: 264 nM | Ki [3]: 251 nM | Ki [4]: 267 nM | Res. Act. (%) [5]: 100% | Res. Act. (%) [6]: 105% | Res. Act. (%) [7]: 106% | Ki [8]: 251 nM

AVCPRILMKCKKDSDCLAECVCLEHGYCG [TICA1 Ala-scan analogue]
Activity vs TICA1 [9]: 7.5%

RVCARILMKCKKDSDCLAECVCLEHGYCG [TICA1 Ala-scan analogue]
Activity vs TICA1 [9]: 9.0%

RVCPAILMKCKKDSDCLAECVCLEHGYCG [TICA1 Ala-scan analogue]
Activity vs TICA1 [9]: 0.009%

RVCPRILMKAKKDSDCLAECVALEHGYCG (disulfide 16-28, 3-20) [TICA1 with 2 disulfide bonds (C3-C20, C16-C28)]
activity (%) [10]: 6.8%

AAARVCPRILMKCKKDSDCLAECVCLEHGYCG (modifications not checked) [AAA-TICA1]
Ki [11]: 104 nM

B1: TICA 3 (peptide)
peptide: HEERVCPRILMKCKKDSDCLAECVCLEHGYCG
notes: Synthetic congener; also called HEE-TICA1
Ki [12]: 10.1 µg/mL and 3.09 µM | Ki [1]: 3090 nM | Ki [2]: 3180 nM | Ki [3]: 3090 nM | Ki [4]: 3130 nM | Res. Act. (%) [5]: 100% | Res. Act. (%) [6]: 103% | Res. Act. (%) [7]: 101% | Ki [8]: 3090 nM

B2: TICA 5 (peptide)
peptide: B1 peptide with R8K, K12E, V24I
notes: Synthetic congener; also called HEE-TICA4
Ki [12]: 556 µg/mL and 171 µM | Ki [1]: 171000 nM | Ki [2]: 179000 nM | Ki [3]: 171000 nM | Ki [4]: 165000 nM | Res. Act. (%) [5]: 100% | Res. Act. (%) [6]: 105% | Res. Act. (%) [7]: 96% | Ki [8]: 171000 nM

RVCPRILMKCKKDSDCLAECVCLEHGYCGAAA (modifications not checked) [TICA1-AAA]
Ki [11]: 377 nM

RVCGIGPRPRLPWPRILMKCKKDSDCLAECVCLEHGYCG (modifications not checked) [PCTI]
Ki [11]: 469000 nM

RVCPRILMKAKKDSDALAECVALEHGYAG (disulfide 3-20) [TICA1 with 1 disulfide bond (C3-C20)]
activity (%) [13]: 0.003%

RVAPRILMKCKKDSDALAEAVCLEHGYAG (disulfide 10-22) [TICA1 with 1 disulfide bond (C10-C22)]
activity (%) [13]: 0.003%

RVCPRILMKCKKDSDALAECVCLEHGYAG (disulfide 10-22, 3-20) [TICA1 with 2 disulfide bonds (C3-C20, C10-C22)]
activity (%) [13]: 0.2%

RVAPRILMKAKKDSDCLAEAVALEHGYCG (disulfide 16-28) [TICA1 with 1 disulfide bond (C16-C28)]
activity (%) [13]: 0.006%

RVCPKILMECKKDSDCLAECICLEHGYCG (disulfide (positions not given here), Synthetic congener) [TICA 4]
Ki [12]: 4.62 µg/mL and 1.42 µM | Ki [1]: 1420 nM | Ki [2]: 1340 nM | Ki [3]: 1420 nM | Ki [4]: 1400 nM | Res. Act. (%) [5]: 100% | Res. Act. (%) [6]: 94% | Res. Act. (%) [7]: 98% | Ki [8]: 1420 nM

RVCPRILMECKKDSDCLAECVCLEHGYCG (disulfide (positions not given here), Synthetic, folded peptide) [TICA 2]
Ki [12]: 0.355 µg/mL and 109 nM | Ki [1]: 109 nM | Ki [2]: 108 nM | Ki [3]: 109 nM | Ki [4]: 114 nM | Res. Act. (%) [5]: 100% | Res. Act. (%) [6]: 99% | Res. Act. (%) [7]: 105% | Ki [8]: 109 nM

RVAPRILMKCKKDSDCLAEAVCLEHGYCG (disulfide 10-22, 16-28) [TICA1 with 2 disulfide bonds (C10-C22, C16-C28)]
activity (%) [13]: 0.3%

RVCPRILMKCKKDSDCLAECVCLEHGYCG (modifications not checked) [TICA 1]
Activity of FXIIa (mA/min) [14]: 33.5 mA/min | Ki [15]: 25.5 nM | Ki [16]: 24 nM | Ki [17]: 26 nM | Ki [18]: 26 nM | activity (%) [19]: 100% | Res. Act. (%) [20]: 100% | Res. Act. (%) [21]: 94% | Free FXIIa [22]: 3.93 nM | Res. Act. (%) [23]: 102% | Ki [11]: 25.5 nM | Residual activity (%) [24]: 81.7%
